The supplement of paper PMC10065799, “High-throughput profiling of sequence recognition by tyrosine kinases and SH2 domains using bacterial peptide display” (eLife, 2023)

Experiments:
EPHB1 = EPHB1 (UniProt P54762); test: phosphorylation enrichment, bacterial display (enrichment ratio); higher = better substrate or ligand; peptides without Tyr show the background
EPHB2 = EPHB2 (UniProt P29323); test: as above
c-Src = test: as above
FGFR3 = FGFR3 (UniProt P22607); test: as above
Jak2 = Jak2 (UniProt O60674); test: as above
c-Abl (mouse) = test: as above
AncSZ = test: as above
Fer (mouse) = test: as above
Fes = Fes (UniProt P07332); test: as above
Fyn = Fyn (UniProt P06241); test: as above
MERTK = MERTK (UniProt Q12866); test: as above
Hck = Hck (UniProt P08631); test: as above
FGFR1 = FGFR1 (UniProt P11362); test: as above
Grb2 SH2 = Grb2 SH2 (UniProt P62993); test: SH2 binding enrichment of the phosphorylated peptide, bacterial display (enrichment ratio); higher = better substrate or ligand; peptides without Tyr show the background
SHP2-C SH2 = test: as above
c-Src SH2 = test: as above
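Wherever SH2 binding enrichment of the phosphorylated peptide, bacterial display is given: peptide library displayed on the E. coli surface as eCPX fusions, selected cells deep-sequenced, score is each peptide's frequency after selection divided by its frequency in the input.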
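Wherever phosphorylation enrichment, bacterial display is given: 11-residue human phosphosite peptides and single-mutation variants displayed on the E. coli surface, counted by deep sequencing, each peptide's frequency after selection divided by its frequency in the unselected input library; frequency after pTyr selection over input frequency; kinase dosed for 20-30% of maximal phosphorylation in three min.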

Sequence of Jak2 (O60674 whole entry, looked up): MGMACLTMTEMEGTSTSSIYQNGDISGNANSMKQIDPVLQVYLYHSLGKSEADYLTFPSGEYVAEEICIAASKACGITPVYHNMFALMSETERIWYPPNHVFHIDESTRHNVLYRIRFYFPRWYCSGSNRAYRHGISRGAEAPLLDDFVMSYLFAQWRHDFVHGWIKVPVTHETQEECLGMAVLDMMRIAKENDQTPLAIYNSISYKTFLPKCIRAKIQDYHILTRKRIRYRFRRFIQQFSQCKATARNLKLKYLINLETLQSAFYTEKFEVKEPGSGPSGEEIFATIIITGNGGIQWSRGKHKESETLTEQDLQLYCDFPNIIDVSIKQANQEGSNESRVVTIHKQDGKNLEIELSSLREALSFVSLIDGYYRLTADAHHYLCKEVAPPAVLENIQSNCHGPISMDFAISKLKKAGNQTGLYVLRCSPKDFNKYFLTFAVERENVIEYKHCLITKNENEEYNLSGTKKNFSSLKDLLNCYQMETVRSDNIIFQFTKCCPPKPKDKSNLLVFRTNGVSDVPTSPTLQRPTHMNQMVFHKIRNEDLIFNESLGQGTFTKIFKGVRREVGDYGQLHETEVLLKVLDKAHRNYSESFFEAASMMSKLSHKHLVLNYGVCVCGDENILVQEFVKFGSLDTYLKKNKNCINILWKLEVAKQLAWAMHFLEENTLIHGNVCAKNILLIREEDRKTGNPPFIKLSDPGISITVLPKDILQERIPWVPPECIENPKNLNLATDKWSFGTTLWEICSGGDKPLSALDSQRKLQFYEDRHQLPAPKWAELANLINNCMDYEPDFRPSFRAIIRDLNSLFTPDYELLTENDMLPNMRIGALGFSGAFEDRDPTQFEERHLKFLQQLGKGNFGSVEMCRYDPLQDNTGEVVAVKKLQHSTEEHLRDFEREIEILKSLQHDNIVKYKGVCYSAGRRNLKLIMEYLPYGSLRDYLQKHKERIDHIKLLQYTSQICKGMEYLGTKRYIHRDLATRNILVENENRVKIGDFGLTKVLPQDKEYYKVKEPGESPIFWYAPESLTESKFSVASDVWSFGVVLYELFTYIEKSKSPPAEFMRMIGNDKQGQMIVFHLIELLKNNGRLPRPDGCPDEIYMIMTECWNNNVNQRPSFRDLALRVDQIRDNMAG
Sequence of FGFR1 (P11362 whole entry, looked up): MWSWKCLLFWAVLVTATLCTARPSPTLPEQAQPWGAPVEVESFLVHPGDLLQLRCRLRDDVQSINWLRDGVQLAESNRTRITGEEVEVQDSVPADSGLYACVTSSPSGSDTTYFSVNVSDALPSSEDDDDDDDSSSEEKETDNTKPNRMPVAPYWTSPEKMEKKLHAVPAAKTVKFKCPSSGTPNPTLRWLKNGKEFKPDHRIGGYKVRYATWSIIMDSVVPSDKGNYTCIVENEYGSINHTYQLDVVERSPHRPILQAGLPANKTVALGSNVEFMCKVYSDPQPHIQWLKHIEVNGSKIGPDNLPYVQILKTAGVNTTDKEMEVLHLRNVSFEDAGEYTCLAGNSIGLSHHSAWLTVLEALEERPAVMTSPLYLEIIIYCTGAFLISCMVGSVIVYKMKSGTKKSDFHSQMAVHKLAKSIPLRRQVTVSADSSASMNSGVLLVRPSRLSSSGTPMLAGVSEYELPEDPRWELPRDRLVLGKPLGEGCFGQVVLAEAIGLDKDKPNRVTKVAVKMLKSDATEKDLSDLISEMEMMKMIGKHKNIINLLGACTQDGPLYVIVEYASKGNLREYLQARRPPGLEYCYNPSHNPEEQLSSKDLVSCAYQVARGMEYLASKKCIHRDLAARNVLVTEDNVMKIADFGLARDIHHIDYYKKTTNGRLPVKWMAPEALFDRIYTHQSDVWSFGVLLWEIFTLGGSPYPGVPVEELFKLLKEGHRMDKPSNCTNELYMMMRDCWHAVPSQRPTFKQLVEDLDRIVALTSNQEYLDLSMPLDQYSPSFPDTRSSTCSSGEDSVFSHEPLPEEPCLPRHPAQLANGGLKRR
Sequence of Grb2 SH2 (P62993 whole entry, looked up): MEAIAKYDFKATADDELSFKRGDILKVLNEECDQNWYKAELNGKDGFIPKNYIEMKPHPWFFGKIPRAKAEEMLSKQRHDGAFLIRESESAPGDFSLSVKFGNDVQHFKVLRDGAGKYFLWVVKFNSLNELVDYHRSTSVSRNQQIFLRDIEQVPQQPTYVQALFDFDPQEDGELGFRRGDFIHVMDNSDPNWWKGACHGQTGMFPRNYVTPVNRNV
Sequence of Hck (P08631 whole entry, looked up): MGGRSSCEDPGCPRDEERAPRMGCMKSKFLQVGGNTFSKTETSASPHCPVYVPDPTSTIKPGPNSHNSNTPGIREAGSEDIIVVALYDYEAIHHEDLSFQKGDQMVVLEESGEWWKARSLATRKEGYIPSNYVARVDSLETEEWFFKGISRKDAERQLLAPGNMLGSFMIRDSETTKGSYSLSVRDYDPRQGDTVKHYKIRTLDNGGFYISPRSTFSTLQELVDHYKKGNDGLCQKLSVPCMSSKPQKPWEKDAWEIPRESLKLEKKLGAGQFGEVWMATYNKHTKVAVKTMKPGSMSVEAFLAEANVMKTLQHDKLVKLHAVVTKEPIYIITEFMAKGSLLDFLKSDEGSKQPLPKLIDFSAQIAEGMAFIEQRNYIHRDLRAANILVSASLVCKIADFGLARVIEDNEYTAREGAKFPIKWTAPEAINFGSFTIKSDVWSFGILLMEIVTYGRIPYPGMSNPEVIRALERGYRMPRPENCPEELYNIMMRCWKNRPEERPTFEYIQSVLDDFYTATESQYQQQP
Sequence of EPHB2 (P29323 whole entry, looked up): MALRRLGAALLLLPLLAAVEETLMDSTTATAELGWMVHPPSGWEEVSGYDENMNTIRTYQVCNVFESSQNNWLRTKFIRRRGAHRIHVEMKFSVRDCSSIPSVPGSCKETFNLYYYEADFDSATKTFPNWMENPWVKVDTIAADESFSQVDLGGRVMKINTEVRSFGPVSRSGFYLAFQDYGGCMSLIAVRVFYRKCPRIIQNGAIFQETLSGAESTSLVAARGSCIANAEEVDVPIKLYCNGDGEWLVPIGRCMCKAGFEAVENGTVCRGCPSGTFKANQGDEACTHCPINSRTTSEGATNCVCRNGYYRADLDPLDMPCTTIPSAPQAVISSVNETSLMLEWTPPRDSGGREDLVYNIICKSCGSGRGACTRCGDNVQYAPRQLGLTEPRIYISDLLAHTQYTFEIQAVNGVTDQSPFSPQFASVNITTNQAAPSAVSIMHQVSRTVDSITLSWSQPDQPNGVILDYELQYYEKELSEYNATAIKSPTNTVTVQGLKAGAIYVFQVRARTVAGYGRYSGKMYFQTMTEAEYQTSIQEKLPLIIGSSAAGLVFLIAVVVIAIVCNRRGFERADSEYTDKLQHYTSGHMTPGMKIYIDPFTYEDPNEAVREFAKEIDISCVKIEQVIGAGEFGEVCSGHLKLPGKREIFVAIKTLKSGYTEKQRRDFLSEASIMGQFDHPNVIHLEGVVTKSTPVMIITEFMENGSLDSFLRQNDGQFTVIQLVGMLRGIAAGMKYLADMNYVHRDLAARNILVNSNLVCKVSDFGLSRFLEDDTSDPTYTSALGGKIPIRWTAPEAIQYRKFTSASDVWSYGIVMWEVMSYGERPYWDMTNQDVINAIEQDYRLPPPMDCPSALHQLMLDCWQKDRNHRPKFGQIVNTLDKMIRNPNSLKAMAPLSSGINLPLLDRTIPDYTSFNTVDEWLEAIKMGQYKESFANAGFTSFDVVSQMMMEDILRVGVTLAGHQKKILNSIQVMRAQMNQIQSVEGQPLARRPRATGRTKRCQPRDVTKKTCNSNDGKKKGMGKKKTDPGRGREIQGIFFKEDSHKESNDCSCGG
Sequence of Fes (P07332 whole entry, looked up): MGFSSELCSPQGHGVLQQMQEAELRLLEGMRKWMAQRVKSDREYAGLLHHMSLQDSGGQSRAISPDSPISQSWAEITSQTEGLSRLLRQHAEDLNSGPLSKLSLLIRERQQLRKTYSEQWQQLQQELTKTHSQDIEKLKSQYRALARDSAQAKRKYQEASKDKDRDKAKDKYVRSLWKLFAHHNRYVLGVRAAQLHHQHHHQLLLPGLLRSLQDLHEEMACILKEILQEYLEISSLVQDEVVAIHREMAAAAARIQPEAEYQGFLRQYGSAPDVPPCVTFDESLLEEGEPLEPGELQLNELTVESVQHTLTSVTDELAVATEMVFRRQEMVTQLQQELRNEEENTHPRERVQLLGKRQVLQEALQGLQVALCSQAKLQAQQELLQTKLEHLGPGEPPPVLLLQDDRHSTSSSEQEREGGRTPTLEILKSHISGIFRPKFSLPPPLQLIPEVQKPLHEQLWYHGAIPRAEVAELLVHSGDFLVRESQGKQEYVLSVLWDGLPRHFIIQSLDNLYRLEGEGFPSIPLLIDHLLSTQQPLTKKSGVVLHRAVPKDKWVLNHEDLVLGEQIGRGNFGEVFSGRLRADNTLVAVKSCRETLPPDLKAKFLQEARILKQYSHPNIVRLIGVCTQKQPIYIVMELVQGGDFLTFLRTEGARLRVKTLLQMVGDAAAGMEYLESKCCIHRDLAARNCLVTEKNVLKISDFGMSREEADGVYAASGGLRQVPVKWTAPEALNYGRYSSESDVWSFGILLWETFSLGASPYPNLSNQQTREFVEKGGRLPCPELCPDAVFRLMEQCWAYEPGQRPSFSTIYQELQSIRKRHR

| Sequence | phosphorylation enrichment (EPHB1) | phosphorylation enrichment (EPHB2) | phosphorylation enrichment (c-Src) | phosphorylation enrichment (FGFR3) | phosphorylation enrichment (Jak2) | phosphorylation enrichment (c-Abl (mouse)) | phosphorylation enrichment (AncSZ) | phosphorylation enrichment (Fer (mouse)) | phosphorylation enrichment (Fes) | phosphorylation enrichment (Fyn) | phosphorylation enrichment (MERTK) | phosphorylation enrichment (Hck) | phosphorylation enrichment (FGFR1) | SH2 binding enrichment (Grb2 SH2) | SH2 binding enrichment (SHP2-C SH2) | SH2 binding enrichment (c-Src SH2) |
| --- | --- | --- | --- | --- | --- | --- | --- | --- | --- | --- | --- | --- | --- | --- | --- | --- |
| LKKLEYLNLAL [LRRC6_Y70] | 0.81 | 0.987 | 0.367 | 1.14 | 1.23 | 0.574 | 1.05 | 0.549 | 1.43 | 0.408 | 0.296 | 0.489 | 1.36 | 2.59 | 1.49 | 0.424 |
| LKLIQYHLIQQ [AKAP4_Y554_T557I] | 0.95 | 0.737 | 0.582 | 0.924 | 1.4 | 1.16 | 1.2 | 0.544 | 1.67 | 0.553 | 0.774 | 0.659 | 0.687 | 1.51 | 4.15 | 2.22 |
| LKYAIYFEARE [LAMA2_Y1258] | 1.59 | 1.4 | 1.49 | 1.64 | 3.01 | 1.94 | 2.42 | 0.822 | 2.41 | 1.21 | 0.907 | 1.67 | 0.938 | 0.907 | 0.793 | 0.449 |
| LLARLYRGQAL [FGFR4_Y390_G388R] | 0.713 | 0.477 | 0.489 | 0.592 | 0.823 | 0.937 | 0.9 | 0.507 | 0.887 | 0.795 | 0.442 | 0.519 | 0.529 | 0.827 | 0.512 | 0.461 |
| LLLLFYVVRYC [MPZ_Y177] | 0.359 | 0.345 | 0.492 | 0.436 | 0.735 | 0.574 | 0.722 | 0.468 | 0.738 | 0.463 | 0.54 | 0.438 | 0.415 | 1.77 | 1.53 | 1.33 |
| LLREWYLPDPY [SIX3_Y225_Q227P] | 0.541 | 0.473 | 0.49 | 0.816 | 1.04 | 0.969 | 0.888 | 0.409 | 1.14 | 0.477 | 0.351 | 0.484 | 0.636 | 1.58 | 1.09 | 1.1 |
| LLREWYLQDPF [SIX3_Y225_YF] | 0.557 | 0.765 | 0.788 | 0.784 | 1.52 | 1.15 | 1.43 | 0.661 | 1.73 | 0.564 | 0.567 | 0.509 | 0.941 | 1.42 | 2.31 | 0.978 |
| LLRFLYFFVCS [SLC34A2_Y109_G106R] | 0.606 | 0.585 | 0.587 | 1.22 | 1.69 | 0.697 | 0.948 | 0.573 | 1.59 | 0.519 | 0.744 | 0.704 | 0.72 | 2.1 | 1.96 | 1.73 |
| LLRLAYLADIF [ZBED5_Y476] | 0.69 | 0.677 | 0.419 | 0.636 | 0.99 | 0.765 | 0.872 | 0.745 | 1.02 | 0.457 | 0.432 | 0.54 | 0.64 | 1.9 | 1.61 | 1.34 |
| LMQAEYWHDPI [PPT1_Y185_V181M] | 1.2 | 0.863 | 0.54 | 4.42 | 1.16 | 0.724 | 1.36 | 0.773 | 1.56 | 0.835 | 0.557 | 0.769 | 6.07 | 0.999 | 0.68 | 0.983 |
| LNAGAYSKVVE [PPT1_Y172_Q177E] | 0.431 | 0.416 | 0.523 | 0.378 | 0.541 | 0.46 | 0.447 | 0.551 | 0.664 | 0.306 | 0.448 | 0.411 | 0.436 | 0.758 | 1.08 | 2.03 |
| LNCDRYSVGLL [PDE6A_Y275] | 0.961 | 1.51 | 0.823 | 1.2 | 1.2 | 0.929 | 1.16 | 0.898 | 1.59 | 0.734 | 0.709 | 0.889 | 0.712 | 0.873 | 0.527 | 0.588 |
| LNERHYGGLTD [PGAM2_Y92_G97D] | 1.1 | 0.83 | 0.515 | 1.12 | 0.457 | 0.605 | 1.18 | 0.7 | 0.663 | 0.975 | 0.629 | 1.08 | 0.977 | 0.98 | 0.773 | 0.528 |
| LNPDGYEKAYE [CPXM2_Y427] | 0.696 | 0.816 | 0.478 | 0.789 | 2.41 | 0.773 | 1.12 | 0.365 | 1.53 | 0.797 | 0.364 | 0.489 | 0.633 | 0.93 | 0.729 | 4.86 |
| LNPLFYSLRNK [OR5R1_Y290_I289F] | 0.396 | 0.537 | 0.348 | 0.737 | 0.468 | 0.363 | 0.552 | 0.75 | 0.773 | 0.511 | 0.395 | 0.475 | 0.481 | 1.5 | 2.19 | 0.74 |
| LPKEQYLYTKE [AFG3L2_Y614] | 0.895 | 0.574 | 0.913 | 0.998 | 1.41 | 1.48 | 1.3 | 0.75 | 1.42 | 0.634 | 0.792 | 0.767 | 0.789 | 0.75 | 0.643 | 0.597 |
| LPPGEYVVVPS [CAPN1_Y494] | 5.23 | 3.72 | 0.641 | 1.93 | 1.32 | 1.31 | 1.7 | 0.778 | 1.45 | 0.88 | 0.927 | 0.67 | 2.83 | 1.06 | 0.795 | 0.789 |

| Sequence | phosphorylation enrichment (EPHB1) | phosphorylation enrichment (EPHB2) | phosphorylation enrichment (c-Src) | phosphorylation enrichment (FGFR3) | phosphorylation enrichment (Jak2) | phosphorylation enrichment (c-Abl (mouse)) | phosphorylation enrichment (AncSZ) | phosphorylation enrichment (Fer (mouse)) | phosphorylation enrichment (Fes) | phosphorylation enrichment (Fyn) | phosphorylation enrichment (MERTK) | phosphorylation enrichment (Hck) | phosphorylation enrichment (FGFR1) | SH2 binding enrichment (Grb2 SH2) | SH2 binding enrichment (SHP2-C SH2) | SH2 binding enrichment (c-Src SH2) |
| --- | --- | --- | --- | --- | --- | --- | --- | --- | --- | --- | --- | --- | --- | --- | --- | --- |
| LQLLGDRPVFS [CHST6_Y358_Y358D_YF] | 0.521 | 0.487 | 0.377 | 0.542 | 0.633 | 0.673 | 0.628 | 0.378 | 0.795 | 0.356 | 0.388 | 0.41 | 0.448 | 0.749 | 0.762 | 0.532 |
| LREKVYASLEA [RXRA_Y397] | 0.823 | 0.862 | 6.94 | 0.944 | 1.21 | 5.68 | 1.63 | 0.892 | 1.9 | 6.2 | 2.22 | 2.9 | 0.84 | 0.665 | 1.28 | 0.75 |
| LRIAVYHEILI [CREBBP_Y1450_T1447I] | 5.55 | 3.56 | 2.29 | 6.95 | 4.19 | 2.93 | 5.75 | 2.45 | 4.93 | 3.37 | 1.62 | 2.74 | 5.94 | 1.1 | 0.798 | 0.954 |
| LRNRVYEVPVE [SLC26A3_Y756] | 1.12 | 1.54 | 1.18 | 0.757 | 2.04 | 1.52 | 1.65 | 4.25 | 1.25 | 1.17 | 3.3 | 1.37 | 0.584 | 1.25 | 0.936 | 6.38 |
| LSALDYKIFFF [WDPCP_Y210_YF] | 0.588 | 0.71 | 0.717 | 0.833 | 0.991 | 0.725 | 1.5 | 0.672 | 1.05 | 0.418 | 0.332 | 0.585 | 0.753 | 0.84 | 1.54 | 0.557 |
| LSDGPYSNSFE [EPOR_Y485_P488S_YF] | 0.982 | 1.11 | 0.83 | 0.976 | 1.18 | 1.2 | 1.49 | 1.36 | 1.65 | 1.23 | 0.858 | 0.915 | 1.07 | 1 | 0.525 | 1.22 |
| LSSEMCVKSFT [F5_Y2149_Y2149C_YF] | 0.472 | 1.34 | 0.726 | 1.13 | 1.11 | 0.932 | 1.36 | 0.815 | 1.45 | 0.683 | 0.854 | 0.971 | 1.07 | 1 | 0.603 | 0.641 |
| LSVEIHDRREY [ITGB7_Y753_Y753H] | 0.55 | 0.54 | 0.438 | 0.633 | 1.12 | 0.823 | 1.09 | 0.473 | 1.08 | 0.336 | 0.336 | 0.463 | 0.414 | 0.733 | 0.473 | 0.429 |
| LTQRTYMLENA [GPAA1_Y49_S51L] | 0.783 | 0.541 | 0.479 | 0.929 | 0.64 | 0.623 | 0.843 | 0.468 | 1.01 | 0.858 | 0.536 | 0.547 | 0.866 | 0.988 | 1.06 | 0.747 |
| LVGTPYWMAPE [PAK5_Y608] | 0.775 | 0.437 | 2.71 | 1.84 | 1.14 | 0.694 | 0.91 | 0.573 | 1.15 | 0.683 | 0.856 | 0.459 | 2.09 | 0.76 | 1.58 | 0.673 |
| LVQAEYWHDRI [PPT1_Y185_P189R] | 0.684 | 0.896 | 0.603 | 2.08 | 1.25 | 0.868 | 1.16 | 0.706 | 1 | 0.396 | 0.522 | 0.605 | 3.27 | 0.699 | 0.511 | 0.685 |
| LVVFEYMRHGD [NTRK1_Y591_M587V] | 0.577 | 0.556 | 0.374 | 0.625 | 0.761 | 0.476 | 0.875 | 0.456 | 1.03 | 0.46 | 0.392 | 0.475 | 0.486 | 1.2 | 1.35 | 0.725 |
| LWPIWYRCHRP [MRGPRX1_Y130] | 0.721 | 0.893 | 0.466 | 1.02 | 1.17 | 1.15 | 1.86 | 0.702 | 1.63 | 0.798 | 0.804 | 0.699 | 1.04 | 1.09 | 1.06 | 0.416 |
| LWPIWYRCRRP [MRGPRX1_Y130_H133R] | 0.58 | 0.49 | 0.431 | 0.507 | 0.408 | 0.542 | 0.618 | 0.331 | 0.512 | 0.522 | 0.685 | 0.805 | 0.461 | 0.565 | 0.857 | 0.421 |
| LYSINYLHFGD [KDM4C_Y201_E206D] | 12.7 | 12.1 | 3.68 | 3.85 | 1.47 | 1.73 | 1.99 | 15.8 | 1.84 | 4.87 | 12.8 | 4.59 | 5.82 | 1.69 | 2.45 | 1.2 |
| LYSNAYLNDLA [ALDH1A1_Y119] | 0.853 | 0.685 | 1.1 | 0.776 | 0.667 | 0.396 | 0.831 | 4.03 | 0.914 | 1.19 | 5.82 | 1.45 | 0.484 | 4.68 | 0.613 | 1.84 |
